In the supplement of paper PMC9732359:
± gives the uncertainty stated by the source.

Assay: protein stability index of a GFP-peptide fusion (yeast GPS) (PSI 1-4); higher = more stable; sorted into four equal gates, so the index is relative within each strain
In short: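 Sequencing reads from sorted gates were used to score each peptide. The library consisted of tiled 17-residue yeast protein peptides fused downstream of GFP on a Cherry-expressing plasmid, pooled and carried in yeast. Mid-log cultures in leucine-free medium were split into four equal gates by GFP/Cherry ratio, and each gate's plasmids were PCR-amplified and Illumina-sequenced. The protein stability index adds up, over all gates, the read frequency multiplied by the gate number.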

| Sequence | protein stability index (doa10∆) | protein stability index (pdr5∆) | protein stability index (san1∆) | protein stability index (ubr1∆) |
| --- | --- | --- | --- | --- |
| SRFTNVSVIAPESQGQH [YMR153W/NUP53] | 3 ± 0.09 | 3.39 ± 0.087 | 2.6 ± 0.12 | 3.19 ± 0.048 |
| SRKRGGENVFLKRISDG [SIR3] | 3.35 ± 0.086 | 3.29 ± 0.072 | 3.07 ± 0.052 | 3.24 ± 0.037 |
| SRLTLLLRALKTNEESA [PRP8] | 1.91 ± 0.056 | 1.58 ± 0.058 | 1.84 ± 0.09 | 1.97 ± 0.044 |
| SRMFEEVSGSIQYKKEY [SMC1] | 3.09 ± 0.057 | 2.02 ± 0.06 | 2.37 ± 0.075 | 3.21 ± 0.057 |
| SRNFSTRDEETTKLAFL [SIR4] | 3.04 ± 0.065 | 3.09 ± 0.055 | 3.03 ± 0.04 | 2.97 ± 0.038 |
| SRRPEPKKFGGKGARSR [RPS16A] | 3.06 ± 0.11 | 3.25 ± 0.095 | 3.25 ± 0.077 | 3.06 ± 0.052 |
| SRRTVNKEMETQRIMTN [YLR018C/POM34] | 3.51 ± 0.12 | 3.15 ± 0.29 | 3.22 ± 0.26 | 3.1 ± 0.2 |
| SRVINVVRAASSLASQD [RRP6] | 1.98 ± 0.082 | 2.47 ± 0.074 | 2.57 ± 0.18 |  |
| SSDVDMDDEEWRSKRIE [RPC53] | 3.47 ± 0.1 | 3.17 ± 0.1 | 3.42 ± 0.053 | 3.31 ± 0.069 |
| SSEQDYSTLKELLEYSD [YCG1] | 2.92 ± 0.082 | 2.75 ± 0.088 | 3.15 ± 0.068 | 3.15 ± 0.086 |
| SSETDDDHSQVINPQQL [DSN1] | 2.99 ± 0.048 | 3.13 ± 0.05 | 2.99 ± 0.044 | 3.08 ± 0.048 |
| SSFGSESLTFNEFQLQW [SWI1] | 2.98 ± 0.066 | 2.84 ± 0.056 | 2.56 ± 0.054 | 3.02 ± 0.046 |
| SSFNKRSKFLSTVAKFL [IRR1] | 2.76 ± 0.052 | 2.28 ± 0.054 | 2.08 ± 0.067 | 2.4 ± 0.035 |
| SSGFNEDIVGALRRRVG [REC8] | 1.17 ± 0.085 | 1.16 ± 0.055 | 1.44 ± 0.26 | 1.11 ± 0.11 |
| SSHQRVFKLSTNLISKI [SWP82] | 2.08 ± 0.073 | 1.97 ± 0.057 | 1.52 ± 0.11 | 1.93 ± 0.048 |
| SSLEARYFFYLSKINAI [RPN3] | 1.74 ± 0.05 | 2.17 ± 0.064 | 1.95 ± 0.1 | 1.75 ± 0.042 |
| SSLSAIIVFGYPESISN [YDL088C/ASM4] | 1.75 ± 0.067 | 1.88 ± 0.046 | 2.16 ± 0.086 | 2.01 ± 0.062 |
| SSLYEASLNALKESIKN [RPN1] | 3.26 ± 0.1 | 3.1 ± 0.1 | 3.38 ± 0.085 | 3.08 ± 0.065 |
| SSNTNNNTNNNNTNTGA [SWI1] | 3.48 ± 0.071 | 3.29 ± 0.069 | 3.29 ± 0.057 | 3.33 ± 0.065 |
| SSPDTMKLTDLLSLINS [SNF12] | 2.69 ± 0.042 | 2.73 ± 0.039 | 2.81 ± 0.047 | 2.67 ± 0.036 |
| SSPEEPFMSYSPQLTAI [SNF12] | 2.45 ± 0.065 | 2.79 ± 0.063 | 2.7 ± 0.066 | 2.77 ± 0.051 |
| SSSMDMQANTNALRRNL [SSN3] | 2.63 ± 0.055 | 2.33 ± 0.05 | 3.13 ± 0.046 | 2.28 ± 0.043 |
| SSTGVPESIDTILSSKL [SRB2] | 2.62 ± 0.19 | 2.92 ± 0.13 | 2.93 ± 0.075 | 3.04 ± 0.075 |
| SSTKDYLTPPHECRLRD [RET1] | 3.34 ± 0.12 | 3.22 ± 0.14 | 3.2 ± 0.18 | 3.25 ± 0.16 |
| SSTYYNLDYLFELIELV [NUT1] |  | 2.62 ± 0.17 | 2.78 ± 0.15 |  |
| SSVFLPSRKDCMEVASA [BRR2] | 2.73 ± 0.063 | 3.4 ± 0.077 | 3.33 ± 0.066 | 3.19 ± 0.059 |
| SSVKTCFKPMSLTSKRL [RIP1] | 3.02 ± 0.063 | 3.04 ± 0.063 | 2.85 ± 0.047 | 2.62 ± 0.033 |
